To fix the notation:
B1: Probable E3 ubiquitin-protein ligase MID2, residues 191 to 235; numbered along this chain, Q9UJV3 (parent)
chain: RGITCLDHENEKVNMYCVSDDQLICALCKLVGRHRDHQVASLNDR

± gives the uncertainty stated by the source.

In the data set the parent is B1. Put plainly: abundance fitness (aPCA) (normalised: wild type 0, dead -1); higher = more abundant; growth selection in yeast, the domain comes from the species named. To be noted: Homo sapiens.
As to RGITCLFHENEKVNMYCVSDDQLICALCKLVGRHRDHQVASLNDR, the abundance fitness was -0.082 ± 0.27.

Consider RGITCLCHENEKVNMYCVSDDQLICALCKLVGRHRDHQVASLNDR, for which the abundance fitness is -0.192 ± 0.071.

RGITCLAHENEKVNMYCVSDDQLICALCKLVGRHRDHQVASLNDR: the abundance fitness is -0.128 ± 0.051.

In the case of QGITCLDHENEKVNMYCVSDDQLICALCKLVGRHRDHQVASLNDR, the abundance fitness is 0.069 ± 0.11.

As to VGITCLDHENEKVNMYCVSDDQLICALCKLVGRHRDHQVASLNDR, the abundance fitness was -0.195 ± 0.066.

As for TGITCLDHENEKVNMYCVSDDQLICALCKLVGRHRDHQVASLNDR, the abundance fitness is -0.118 ± 0.092.

For WGITCLDHENEKVNMYCVSDDQLICALCKLVGRHRDHQVASLNDR, the abundance fitness was -0.502 ± 0.073.

As to DGITCLDHENEKVNMYCVSDDQLICALCKLVGRHRDHQVASLNDR, the abundance fitness is -0.079 ± 0.072.

In the case of HGITCLDHENEKVNMYCVSDDQLICALCKLVGRHRDHQVASLNDR, the abundance fitness is -0.081 ± 0.17.

As for NGITCLDHENEKVNMYCVSDDQLICALCKLVGRHRDHQVASLNDR, the abundance fitness is -0.017 ± 0.15.

Turning to SGITCLDHENEKVNMYCVSDDQLICALCKLVGRHRDHQVASLNDR, the abundance fitness was -0.187 ± 0.059.

In the case of YGITCLDHENEKVNMYCVSDDQLICALCKLVGRHRDHQVASLNDR, the abundance fitness was -0.807 ± 0.38.

MGITCLDHENEKVNMYCVSDDQLICALCKLVGRHRDHQVASLNDR: the abundance fitness is -0.044 ± 0.11.

With EGITCLDHENEKVNMYCVSDDQLICALCKLVGRHRDHQVASLNDR, the abundance fitness stood at 0.019 ± 0.097.

Regarding KGITCLDHENEKVNMYCVSDDQLICALCKLVGRHRDHQVASLNDR, the abundance fitness was -0.211 ± 0.14.

As to LGITCLDHENEKVNMYCVSDDQLICALCKLVGRHRDHQVASLNDR, the abundance fitness was -0.194 ± 0.081.

Take IGITCLDHENEKVNMYCVSDDQLICALCKLVGRHRDHQVASLNDR: the abundance fitness is -0.17 ± 0.095.

In the case of FGITCLDHENEKVNMYCVSDDQLICALCKLVGRHRDHQVASLNDR, the abundance fitness was found to be 0.127 ± 0.3.

As for AGITCLDHENEKVNMYCVSDDQLICALCKLVGRHRDHQVASLNDR, the abundance fitness is -0.158 ± 0.069.

As for GGITCLDHENEKVNMYCVSDDQLICALCKLVGRHRDHQVASLNDR, the abundance fitness is -0.04 ± 0.049.

Regarding RGITNLDHENEKVNMYCVSDDQLICALCKLVGRHRDHQVASLNDR, the abundance fitness was -0.487 ± 0.082.

RGITHLDHENEKVNMYCVSDDQLICALCKLVGRHRDHQVASLNDR: the abundance fitness was -0.555 ± 0.1.

As for RGITWLDHENEKVNMYCVSDDQLICALCKLVGRHRDHQVASLNDR, the abundance fitness is -0.706 ± 0.066.

As to RGITVLDHENEKVNMYCVSDDQLICALCKLVGRHRDHQVASLNDR, the abundance fitness is -0.589 ± 0.064.

On to RGITFLDHENEKVNMYCVSDDQLICALCKLVGRHRDHQVASLNDR, for which the abundance fitness is -0.951 ± 0.31.

With RGITGLDHENEKVNMYCVSDDQLICALCKLVGRHRDHQVASLNDR, the abundance fitness is -0.461 ± 0.046.

Consider RGITMLDHENEKVNMYCVSDDQLICALCKLVGRHRDHQVASLNDR, for which the abundance fitness was -0.462 ± 0.081.

Turning to RGITQLDHENEKVNMYCVSDDQLICALCKLVGRHRDHQVASLNDR, the abundance fitness was -0.585 ± 0.11.

With RGITELDHENEKVNMYCVSDDQLICALCKLVGRHRDHQVASLNDR, the abundance fitness was -0.307 ± 0.06.

As for RGITLLDHENEKVNMYCVSDDQLICALCKLVGRHRDHQVASLNDR, the abundance fitness was -0.985 ± 0.097.

RGITDLDHENEKVNMYCVSDDQLICALCKLVGRHRDHQVASLNDR: the abundance fitness is -0.39 ± 0.076.

RGITSLDHENEKVNMYCVSDDQLICALCKLVGRHRDHQVASLNDR: the abundance fitness is -0.448 ± 0.062.

Turning to RGITKLDHENEKVNMYCVSDDQLICALCKLVGRHRDHQVASLNDR, the abundance fitness was -0.379 ± 0.097.

As to RGITPLDHENEKVNMYCVSDDQLICALCKLVGRHRDHQVASLNDR, the abundance fitness was -0.717 ± 0.099.

Regarding RGITCVDHENEKVNMYCVSDDQLICALCKLVGRHRDHQVASLNDR, the abundance fitness is 0.021 ± 0.045.

In the case of RGITCGDHENEKVNMYCVSDDQLICALCKLVGRHRDHQVASLNDR, the abundance fitness came out at 0.039 ± 0.042.

Consider RGITCRDHENEKVNMYCVSDDQLICALCKLVGRHRDHQVASLNDR, for which the abundance fitness turned out to be 0.103 ± 0.042.

As to RGITCYDHENEKVNMYCVSDDQLICALCKLVGRHRDHQVASLNDR, the abundance fitness is 0.064 ± 0.13.

As for RGITCTDHENEKVNMYCVSDDQLICALCKLVGRHRDHQVASLNDR, the abundance fitness was 0.14 ± 0.057.

RGITCIDHENEKVNMYCVSDDQLICALCKLVGRHRDHQVASLNDR: the abundance fitness came to 0.16 ± 0.13.

Take RGITCWDHENEKVNMYCVSDDQLICALCKLVGRHRDHQVASLNDR: the abundance fitness is -0.253 ± 0.055.

Turning to RGITCEDHENEKVNMYCVSDDQLICALCKLVGRHRDHQVASLNDR, the abundance fitness came out at 0.151 ± 0.049.

As for RGITCNDHENEKVNMYCVSDDQLICALCKLVGRHRDHQVASLNDR, the abundance fitness is -0.22 ± 0.26.

Consider RGITCPDHENEKVNMYCVSDDQLICALCKLVGRHRDHQVASLNDR, for which the abundance fitness is 0.156 ± 0.058.

For the variant RGITCDDHENEKVNMYCVSDDQLICALCKLVGRHRDHQVASLNDR, the abundance fitness amounted to 0.124 ± 0.099.

Regarding RGITCSDHENEKVNMYCVSDDQLICALCKLVGRHRDHQVASLNDR, the abundance fitness worked out at 0.118 ± 0.051.

As to RGITCMDHENEKVNMYCVSDDQLICALCKLVGRHRDHQVASLNDR, the abundance fitness came to 0.072 ± 0.071.

As for RGITCKDHENEKVNMYCVSDDQLICALCKLVGRHRDHQVASLNDR, the abundance fitness is 0.213 ± 0.072.

In the case of RGITCQDHENEKVNMYCVSDDQLICALCKLVGRHRDHQVASLNDR, the abundance fitness was determined as 0.176 ± 0.061.

For RGITCADHENEKVNMYCVSDDQLICALCKLVGRHRDHQVASLNDR, the abundance fitness was determined as 0.145 ± 0.046.

As to RGITCFDHENEKVNMYCVSDDQLICALCKLVGRHRDHQVASLNDR, the abundance fitness is -0.028 ± 0.07.

In the case of RGITCCDHENEKVNMYCVSDDQLICALCKLVGRHRDHQVASLNDR, the abundance fitness was 0.069 ± 0.055.

RGCTCLDHENEKVNMYCVSDDQLICALCKLVGRHRDHQVASLNDR: the abundance fitness is -0.101 ± 0.089.

Take RGDTCLDHENEKVNMYCVSDDQLICALCKLVGRHRDHQVASLNDR: the abundance fitness came out at 0.123 ± 0.1.

As for RGVTCLDHENEKVNMYCVSDDQLICALCKLVGRHRDHQVASLNDR, the abundance fitness is -0.188 ± 0.055.

The values are drawn from the Human Domainome abundance scans (Beltran et al. 2025).
